Test results as given in publication PMC10192046.

Molecular target: T1, interferon regulatory factor 3 (human (endogenous in THP-1)), Q14653
T1 chain: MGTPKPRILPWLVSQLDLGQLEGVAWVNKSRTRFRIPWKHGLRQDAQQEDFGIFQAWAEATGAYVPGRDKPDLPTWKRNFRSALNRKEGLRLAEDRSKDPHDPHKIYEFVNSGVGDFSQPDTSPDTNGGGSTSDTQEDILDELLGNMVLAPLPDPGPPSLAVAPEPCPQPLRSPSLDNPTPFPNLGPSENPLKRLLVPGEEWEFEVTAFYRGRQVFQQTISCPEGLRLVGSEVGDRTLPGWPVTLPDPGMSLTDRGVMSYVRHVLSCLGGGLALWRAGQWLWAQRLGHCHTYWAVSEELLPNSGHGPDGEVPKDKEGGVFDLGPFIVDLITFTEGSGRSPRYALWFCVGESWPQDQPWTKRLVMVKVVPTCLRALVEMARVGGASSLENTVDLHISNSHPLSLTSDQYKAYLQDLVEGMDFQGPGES
Experiment: native gel or EMSA
Details: remark: other sources report otherwise

- stoichiometry N: 2
B1: interferon regulatory factor 3, Q14653 1-427 (natural protein)
chain: T1 chain
